The supplement of paper PMC10899765

What was measured:
Details in all cases: 20 nM; 72 h
MCF10A [1] = test: one-nucleolus phenotype percent effect (relative to siNT 0% and siNOL11 100%); higher = more cells with one nucleolus (ribosome biogenesis inhibition)
Procedure: (§1)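 After 72 h, cells were fixed and stained with Hoechst and anti-fibrillarin, and nucleoli per nucleus were counted with CellProfiler. Values are plate-adjusted percent effect for the one-nucleolus and 5+ nucleoli phenotypes, normalised to siNT (0%) and to the positive controls siNOL11 or siKIF11 (100%), as the mean of biological triplicates. Percent viability is the nuclei count relative to siNT.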

MCF10A [2] = test: percent viability (nuclei count relative to siNT); higher = more viable cells
Procedure: as §1

MCF10A [3] = test: 5+ nucleoli phenotype percent effect (relative to siNT 0% and siKIF11 100%); higher = more cells with five or more nucleoli
Procedure: as §1

Sequence	one-nucleolus phenotype percent effect (MCF10A [1]) [%]	percent viability (MCF10A [2]) [%]	5+ nucleoli phenotype percent effect (MCF10A [3]) [%]
GUGCUUCAUCGUAAUUAACCUUA [hsa-miR-3977]	2.65	49	-18.9
GUGGAGUCCUGGGGAAUGGAGA [hsa-miR-3198]	22	25.5	-28.7
AAAAGUAAUUGCGGUCUUU [hsa-miR-548ap-5p]	-19	121	39.1
AACCUUGGCCCCUCUCCCCAG [hsa-miR-6813-3p]	-35.3	75.9	67.7
UCUUACUCCCUCAGGCACUG [hsa-miR-550b-3p]	1.54	31	-5.7
GGGGCUGGGCGCGCGCC [hsa-miR-4492]	24.8	33.5	-0.324
CUCCUCCCCUGCCUGGCCCAG [hsa-miR-6749-3p]	-2.87	48.8	0.0227
UGGCUUUUAACUUUGAUGGC [hsa-miR-3119]	56.7	17.4	-21.8
GUUUGCACGGGUGGGCCUUGUCU [hsa-miR-557]	34.6	47.7	-30.1
UUGGGGAAACGGCCGCUGAGUG [hsa-miR-2110]	45.4	42.2	-27.7
ACUUGGGCAGGAGGGACCCUGUAUG [hsa-miR-6774-5p]	31.5	22	-35.9
CCCAGAUAAUGGCACUCUCAA [hsa-miR-488-5p]	-5.8	50.9	32.8
GGGCGCCUGUGAUCCCAAC [hsa-miR-566]	-9.02	81.2	39.3
AAGAUGUGGAAAAAUUGGAAUC [hsa-miR-576-3p]	17.9	48	-7.01
CACCAUGGACGGUUUACC [hsa-miR-7153-3p]	62.9	23.4	-48.4
CUGGGGGGAGGAGACCCUGCU [hsa-miR-7109-5p]	29.9	38.9	-2.63
CAAAGGCCACAUUCUCCUGUGCAC [hsa-miR-6768-3p]	28	23.3	-27.1
GUUGUGUCAGUUUAUCAAAC [hsa-miR-599]	-13.5	84.3	29.3
UAGCAGCACAGAAAUAUUGGC [hsa-miR-195-5p]	13.4	26.4	-10.1
UGAGUCAGCAACAUAUCCCAUG [hsa-miR-5702]	-25.5	86.4	52.5

Sequence	one-nucleolus phenotype percent effect (MCF10A [1]) [%]	percent viability (MCF10A [2]) [%]	5+ nucleoli phenotype percent effect (MCF10A [3]) [%]
AAUAGCUCAGAAUGUCAGUUCUG [hsa-miR-7705]	2.1	71.2	-21.4
UAACGGCCGCGGUACCCUAA [hsa-miR-4485]	0.183	32.8	-19.2
ACCUGGACCCAGCGUAGACAAAG [hsa-miR-3690]	-25.7	79.1	65
CUUUCAGUCGGAUGUUUACAGC [hsa-miR-30e-3p]	-11.8	126	14.5
UUUAACAUGGGGGUACCUGCUG [hsa-miR-302c-5p]	-8.1	121	22.3
AAAAGUAAUUGCGGAUUUUGCC [hsa-miR-548i]	-17.1	140	20.3
UUCCAUGCCUCCUAGAAGUUCC [hsa-miR-5581-3p]	-19.3	57.3	13.6
CCAGAGGUGGGGACUGAG [hsa-miR-4257]	22.3	24.6	1.69
UAGAGGAAGCUGUGGAGAGA [hsa-miR-3125]	13.8	23.3	-14.5
GCUGGGAAGGCAAAGGGACGU [hsa-miR-204-3p]	-9.16	49.7	24.5
GAGGGCAGCGUGGGUGUGGCGGA [hsa-miR-4632-5p]	0.575	64.3	13.1
AGCCUGGAAGCUGGAGCCUGCAGU [hsa-miR-1254]	10.5	50.1	-6.84
ACACUUGUUGGGAUGACCUGC [hsa-miR-6500-3p]	22.5	23.8	-37.8
CGCGGGUCGGGGUCUGCAGG [hsa-miR-3621]	-5.2	57.8	-3.13
UCAGUGCAUCACAGAACUUUGU [hsa-miR-148b-3p]	-21.1	126	68.9
CUGUGGGCUCAGCGCGUGGGG [hsa-miR-4322]	28.2	31.3	-30.6
UGGGCUAAGGGAGAUGAUUGGGUA [hsa-miR-664b-5p]	5.55	32.1	2.04
AAGGGACAGGGAGGGUCGUGG [hsa-miR-7845-5p]	-13.3	60.5	2.91
GUGCCAGCUGCAGUGGGGGAG [hsa-miR-1202]	-8.53	76.5	44.3
UGUGAUAUCAUGGUUCCUGGGA [hsa-miR-3689e]	4.57	30.9	-30.6

Sequence	one-nucleolus phenotype percent effect (MCF10A [1]) [%]	percent viability (MCF10A [2]) [%]	5+ nucleoli phenotype percent effect (MCF10A [3]) [%]
CUGCAGACUCGACCUCCCAGGC [hsa-miR-1273h-3p]	13.6	41.7	-28.5
UCAAAAUCAGGAGUCGGGGCUU [hsa-miR-8063]	-23.1	81.3	18.2
GUGCAUUGCUGUUGCAUUGC [hsa-miR-33b-5p]	-2.4	48.5	36
UCACUCUCACCUUGCUUUGC [hsa-miR-4639-3p]	-11.5	63	3.2
UGAUGGAGCUGGGAAUACUCUG [hsa-miR-8082]	21.8	22.3	-14.2
CACGCUCAUGCACACACCCACA [hsa-miR-574-3p]	-8.15	82.7	-3.95
CAGGAAGGAGACAGGCAGUUCA [hsa-miR-6876-5p]	10.4	21.8	-24.5
UAGCUUAUCAGACUGAUGUUGA [hsa-miR-21-5p]	-9.39	121	11.7
UCAGGGAGUCAGGGGAGGGC [hsa-miR-4270]	36.8	9.71	-37.6
CUCUAGAGGGAAGCGCUUUCUG [hsa-miR-523-5p]	5.46	54.8	-3.36
UAGGAUGGGGGUGAGAGGUG [hsa-miR-2392]	-3.85	50.4	17.7
UGAUUGUCUUCAUAUCUAGAAC [hsa-miR-4782-3p]	-0.93	62	-13.9
AAAAGUAAUUGCGGUCUUUGGU [hsa-miR-548j]	-14.6	85.9	17
ACUGCAGUGAAGGCACUUGUAG [hsa-miR-17-3p]	-6.73	70.9	12.2
CUGCCCUGGCCCGAGGGACCGA [hsa-miR-874]	4.65	62.9	-5.29
AAUGCACCUGGGCAAGGAUUCA [hsa-miR-502-3p]	0.707	38.5	-10.4
CUCCGUUUGCCUGUUUCGCUG [hsa-miR-1468]	-8.9	112	30.4
GACUCACUCACAGGAUUGUGCA [hsa-miR-3680-5p]	-12	58.9	39.7
UGGCCCGGCGACGUCUCACGGUC [hsa-miR-4745-3p]	-29.1	58.7	45
CUGGGAGAAGAGUGGUGAAGA [hsa-miR-6788-5p]	10	24.9	-4.55
